125 sequences from the supplement of paper PMC9112550, “Optimization of the antimicrobial peptide Bac7 by deep mutational scanning” (BMC Biology, 2022) can be followed below.
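Further: peptides expressed intracellularly from a pBAD plasmid library in pooled LB shake-flask culture, induced with 0.3% L-arabinose, DNA abundance read by NGS, three biological replicates, DESeq2 with apeglm shrinkage.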

The series has as its system Escherichia coli TOP10. The series can be described thus: shrunken log2 fold change of peptide-encoding DNA abundance (4.5 h post-induction vs induction); higher = less antimicrobial activity (less host growth inhibition). The note with it: time post-induction: 4.5 h; library: site-saturation at positions 5, 18, 19, 20.
On to RRIRDRPPRLPRPRPRPHEQPRP, for which the “shrunken log2 fold change” value is -0.0062.

Consider RRIRNRPPRLPRPRPRPIIDPRP, for which the “shrunken log2 fold change” value was -0.361.

In the case of RRIRGRPPRLPRPRPRPVTPPRP, the “shrunken log2 fold change” value is 1.24.

As to RRIRCRPPRLPRPRPRPMITPRP, the “shrunken log2 fold change” value was -0.0256.

On to RRIRERPPRLPRPRPRPFKMPRP, for which the “shrunken log2 fold change” value was -0.559.

For the sequence RRIRSRPPRLPRPRPRPALRPRP, the “shrunken log2 fold change” value was 0.169.

Take RRIRARPPRLPRPRPRPLFVPRP: the “shrunken log2 fold change” value is 0.0919.

With RRIRIRPPRLPRPRPRPTFMPRP, the “shrunken log2 fold change” value was found to be 1.69.

For RRIRWRPPRLPRPRPRPRHWPRP, the “shrunken log2 fold change” value stood at 0.0523.

For the sequence RRIRLRPPRLPRPRPRPLAYPRP, the “shrunken log2 fold change” value is -0.264.

Take RRIRSRPPRLPRPRPRPVSGPRP: the “shrunken log2 fold change” value was found to be 0.00238.

On to RRIRTRPPRLPRPRPRPYFWPRP, for which the “shrunken log2 fold change” value is -0.299.

As for RRIRFRPPRLPRPRPRPFSMPRP, the “shrunken log2 fold change” value is -0.232.

RRIRYRPPRLPRPRPRPMMSPRP: the “shrunken log2 fold change” value was -0.322.

Turning to RRIRSRPPRLPRPRPRPARYPRP, the “shrunken log2 fold change” value was -0.0163.

Take RRIRLRPPRLPRPRPRPKETPRP: the “shrunken log2 fold change” value was found to be 0.137.

As to RRIRQRPPRLPRPRPRPIYCPRP, the “shrunken log2 fold change” value was -0.0315.

In the case of RRIRWRPPRLPRPRPRPVWIPRP, the “shrunken log2 fold change” value stood at 0.142.

Take RRIRHRPPRLPRPRPRPRKGPRP: the “shrunken log2 fold change” value came out at 0.236.

For the sequence RRIRVRPPRLPRPRPRPHEYPRP, the “shrunken log2 fold change” value was -0.419.

As for RRIRSRPPRLPRPRPRPIMIPRP, the “shrunken log2 fold change” value is -0.426.

Take RRIRDRPPRLPRPRPRPSYWPRP: the “shrunken log2 fold change” value was -0.0689.

Turning to RRIRNRPPRLPRPRPRPFMMPRP, the “shrunken log2 fold change” value is -0.181.

RRIRWRPPRLPRPRPRPIMLPRP: the “shrunken log2 fold change” value came out at 0.464.

For the sequence RRIRFRPPRLPRPRPRPHKPPRP, the “shrunken log2 fold change” value is 0.14.

Take RRIRARPPRLPRPRPRPPAAPRP: the “shrunken log2 fold change” value amounted to 1.12.

With RRIRRRPPRLPRPRPRPWALPRP, the “shrunken log2 fold change” value is -0.0259.

For RRIRHRPPRLPRPRPRPVGAPRP, the “shrunken log2 fold change” value is 3.01.

In the case of RRIRSRPPRLPRPRPRPKVNPRP, the “shrunken log2 fold change” value was -0.333.

As for RRIRERPPRLPRPRPRPEKQPRP, the “shrunken log2 fold change” value was -0.00177.

As for RRIRCRPPRLPRPRPRPPCKPRP, the “shrunken log2 fold change” value was -0.189.

As for RRIRNRPPRLPRPRPRPWTSPRP, the “shrunken log2 fold change” value was 0.0238.

On to RRIRKRPPRLPRPRPRPIEDPRP, for which the “shrunken log2 fold change” value was -0.0345.

On to RRIRPRPPRLPRPRPRPMRNPRP, for which the “shrunken log2 fold change” value amounted to 0.905.

Turning to RRIRDRPPRLPRPRPRPSEFPRP, the “shrunken log2 fold change” value is -0.0277.

In the case of RRIRDRPPRLPRPRPRPCDYPRP, the “shrunken log2 fold change” value is -0.0874.

As to RRIRHRPPRLPRPRPRPGRGPRP, the “shrunken log2 fold change” value worked out at 0.529.

With RRIRMRPPRLPRPRPRPTLMPRP, the “shrunken log2 fold change” value turned out to be 0.0126.

As for RRIRIRPPRLPRPRPRPIHQPRP, the “shrunken log2 fold change” value is -1.14.

In the case of RRIRARPPRLPRPRPRPYVFPRP, the “shrunken log2 fold change” value was -0.245.

Consider RRIRQRPPRLPRPRPRPQQRPRP, for which the “shrunken log2 fold change” value was found to be 0.0983.

Turning to RRIRERPPRLPRPRPRPVTIPRP, the “shrunken log2 fold change” value is -0.233.

For the sequence RRIRGRPPRLPRPRPRPKSVPRP, the “shrunken log2 fold change” value was 0.591.

With RRIRNRPPRLPRPRPRPLCCPRP, the “shrunken log2 fold change” value is -0.371.

In the case of RRIRERPPRLPRPRPRPKMCPRP, the “shrunken log2 fold change” value is -0.149.

As for RRIRNRPPRLPRPRPRPSPLPRP, the “shrunken log2 fold change” value was -0.334.

As to RRIRERPPRLPRPRPRPLFVPRP, the “shrunken log2 fold change” value is -0.799.

As for RRIRQRPPRLPRPRPRPANYPRP, the “shrunken log2 fold change” value was -0.0497.

In the case of RRIRARPPRLPRPRPRPVGEPRP, the “shrunken log2 fold change” value stood at 0.482.

As to RRIRKRPPRLPRPRPRPVKMPRP, the “shrunken log2 fold change” value amounted to 0.0491.

Take RRIRDRPPRLPRPRPRPKTRPRP: the “shrunken log2 fold change” value stood at 0.533.

As for RRIRMRPPRLPRPRPRPHYDPRP, the “shrunken log2 fold change” value is -0.135.

For the sequence RRIRWRPPRLPRPRPRPHWRPRP, the “shrunken log2 fold change” value was found to be 0.329.

On to RRIRRRPPRLPRPRPRPWPCPRP, for which the “shrunken log2 fold change” value stood at 0.133.

Turning to RRIRWRPPRLPRPRPRPWPYPRP, the “shrunken log2 fold change” value is -0.0146.

As for RRIRYRPPRLPRPRPRPDPHPRP, the “shrunken log2 fold change” value was -0.356.

Regarding RRIRMRPPRLPRPRPRPGQQPRP, the “shrunken log2 fold change” value amounted to 1.34.

In the case of RRIRERPPRLPRPRPRPLELPRP, the “shrunken log2 fold change” value turned out to be 0.086.

Take RRIRDRPPRLPRPRPRPRAAPRP: the “shrunken log2 fold change” value was 0.609.

For the sequence RRIRQRPPRLPRPRPRPSIIPRP, the “shrunken log2 fold change” value is -0.63.

Regarding RRIRKRPPRLPRPRPRPHIKPRP, the “shrunken log2 fold change” value is -0.0411.

Regarding RRIRLRPPRLPRPRPRPDMIPRP, the “shrunken log2 fold change” value is -0.0232.

For the sequence RRIRWRPPRLPRPRPRPYKYPRP, the “shrunken log2 fold change” value was -0.977.

Regarding RRIRQRPPRLPRPRPRPAGHPRP, the “shrunken log2 fold change” value came to 0.000618.

Consider RRIRGRPPRLPRPRPRPPMEPRP, for which the “shrunken log2 fold change” value is -0.0178.

With RRIRARPPRLPRPRPRPWEGPRP, the “shrunken log2 fold change” value worked out at 0.209.

Take RRIRMRPPRLPRPRPRPLARPRP: the “shrunken log2 fold change” value came to 0.659.

RRIRNRPPRLPRPRPRPFFMPRP: the “shrunken log2 fold change” value was 0.0606.

Turning to RRIRYRPPRLPRPRPRPHQDPRP, the “shrunken log2 fold change” value is -0.0582.

In the case of RRIRFRPPRLPRPRPRPAWVPRP, the “shrunken log2 fold change” value stood at 0.255.

On to RRIRVRPPRLPRPRPRPWNHPRP, for which the “shrunken log2 fold change” value was -0.152.

Take RRIRHRPPRLPRPRPRPKLGPRP: the “shrunken log2 fold change” value was -0.249.

As for RRIRERPPRLPRPRPRPKVSPRP, the “shrunken log2 fold change” value was -0.205.

For the sequence RRIRKRPPRLPRPRPRPFVLPRP, the “shrunken log2 fold change” value came out at 0.389.

In the case of RRIRGRPPRLPRPRPRPHVYPRP, the “shrunken log2 fold change” value amounted to 0.469.

As to RRIRKRPPRLPRPRPRPMSQPRP, the “shrunken log2 fold change” value is -0.0623.

In the case of RRIRERPPRLPRPRPRPLMLPRP, the “shrunken log2 fold change” value was -0.813.

Regarding RRIRRRPPRLPRPRPRPNYLPRP, the “shrunken log2 fold change” value turned out to be 0.305.

As for RRIRDRPPRLPRPRPRPNFEPRP, the “shrunken log2 fold change” value was 0.282.

On to RRIRIRPPRLPRPRPRPQTKPRP, for which the “shrunken log2 fold change” value worked out at 0.13.

As for RRIRWRPPRLPRPRPRPNFPPRP, the “shrunken log2 fold change” value came to 0.0284.

As for RRIRMRPPRLPRPRPRPRRNPRP, the “shrunken log2 fold change” value amounted to 0.807.

Turning to RRIRCRPPRLPRPRPRPLSFPRP, the “shrunken log2 fold change” value is -0.398.

With RRIRNRPPRLPRPRPRPQTCPRP, the “shrunken log2 fold change” value was 0.0139.

On to RRIRARPPRLPRPRPRPSFGPRP, for which the “shrunken log2 fold change” value was found to be 1.08.

Consider RRIRDRPPRLPRPRPRPRIAPRP, for which the “shrunken log2 fold change” value was found to be 0.114.

Turning to RRIRRRPPRLPRPRPRPFRPPRP, the “shrunken log2 fold change” value was determined as 0.317.

For RRIRERPPRLPRPRPRPCLNPRP, the “shrunken log2 fold change” value was -0.267.

Take RRIRERPPRLPRPRPRPSMPPRP: the “shrunken log2 fold change” value is -0.484.

On to RRIRCRPPRLPRPRPRPVDAPRP, for which the “shrunken log2 fold change” value amounted to 0.323.

In the case of RRIRRRPPRLPRPRPRPSVVPRP, the “shrunken log2 fold change” value amounted to 0.15.

Take RRIRMRPPRLPRPRPRPMVAPRP: the “shrunken log2 fold change” value worked out at 0.12.

RRIRGRPPRLPRPRPRPMLPPRP: the “shrunken log2 fold change” value came out at 0.242.

On to RRIRWRPPRLPRPRPRPQPHPRP, for which the “shrunken log2 fold change” value stood at 0.134.

In the case of RRIRTRPPRLPRPRPRPVGKPRP, the “shrunken log2 fold change” value worked out at 0.0504.

For the sequence RRIRSRPPRLPRPRPRPGQCPRP, the “shrunken log2 fold change” value worked out at 0.0202.

RRIRWRPPRLPRPRPRPFNDPRP: the “shrunken log2 fold change” value is -0.153.

Turning to RRIRARPPRLPRPRPRPGQFPRP, the “shrunken log2 fold change” value was 0.109.

RRIRWRPPRLPRPRPRPASPPRP: the “shrunken log2 fold change” value stood at 0.131.

Take RRIRTRPPRLPRPRPRPMHYPRP: the “shrunken log2 fold change” value was -1.41.

As for RRIRWRPPRLPRPRPRPFDAPRP, the “shrunken log2 fold change” value is 0.029.

With RRIRARPPRLPRPRPRPCRSPRP, the “shrunken log2 fold change” value is -0.0342.

Consider RRIRARPPRLPRPRPRPSPDPRP, for which the “shrunken log2 fold change” value stood at 0.553.

On to RRIRCRPPRLPRPRPRPMSGPRP, for which the “shrunken log2 fold change” value worked out at 0.198.

On to RRIRIRPPRLPRPRPRPCDIPRP, for which the “shrunken log2 fold change” value was -0.416.

With RRIRCRPPRLPRPRPRPYKEPRP, the “shrunken log2 fold change” value was 0.0662.

As for RRIRERPPRLPRPRPRPIGKPRP, the “shrunken log2 fold change” value came to 0.133.

On to RRIRQRPPRLPRPRPRPKTSPRP, for which the “shrunken log2 fold change” value was -0.15.

With RRIRRRPPRLPRPRPRPYDPPRP, the “shrunken log2 fold change” value was determined as 0.0185.

Consider RRIRWRPPRLPRPRPRPREDPRP, for which the “shrunken log2 fold change” value stood at 0.532.

In the case of RRIRNRPPRLPRPRPRPEIMPRP, the “shrunken log2 fold change” value was 0.0538.

As to RRIRHRPPRLPRPRPRPCSVPRP, the “shrunken log2 fold change” value was -0.00861.

Consider RRIRKRPPRLPRPRPRPWRWPRP, for which the “shrunken log2 fold change” value was determined as 0.595.

Turning to RRIRYRPPRLPRPRPRPVQRPRP, the “shrunken log2 fold change” value is -0.0294.

In the case of RRIRCRPPRLPRPRPRPRHTPRP, the “shrunken log2 fold change” value is -0.0438.

Turning to RRIRFRPPRLPRPRPRPIERPRP, the “shrunken log2 fold change” value came to 0.116.

With RRIRDRPPRLPRPRPRPNDRPRP, the “shrunken log2 fold change” value is -0.12.

RRIRIRPPRLPRPRPRPHLTPRP: the “shrunken log2 fold change” value was -0.379.

As for RRIRSRPPRLPRPRPRPQQTPRP, the “shrunken log2 fold change” value was 0.0905.

For RRIRWRPPRLPRPRPRPVKIPRP, the “shrunken log2 fold change” value was -0.142.

As to RRIRTRPPRLPRPRPRPRYCPRP, the “shrunken log2 fold change” value was -0.116.

For the sequence RRIRMRPPRLPRPRPRPTRVPRP, the “shrunken log2 fold change” value was 0.25.

For RRIRGRPPRLPRPRPRPEGTPRP, the “shrunken log2 fold change” value is 1.55.

As to RRIRQRPPRLPRPRPRPIDFPRP, the “shrunken log2 fold change” value is -0.0381.

RRIRWRPPRLPRPRPRPQEDPRP: the “shrunken log2 fold change” value was -0.0221.
